Patent publication US20070065430A1 (GlaxoSmithKline, published 2007)
Residue numbers refer to the chain shown, from its start.

T1: rat NOGO-A (rat, UniProt Q9JK11 173-975, limits assumed)
T1 construct: Used in 'a similar analysis' by Biacore
T1 sequence (looked up): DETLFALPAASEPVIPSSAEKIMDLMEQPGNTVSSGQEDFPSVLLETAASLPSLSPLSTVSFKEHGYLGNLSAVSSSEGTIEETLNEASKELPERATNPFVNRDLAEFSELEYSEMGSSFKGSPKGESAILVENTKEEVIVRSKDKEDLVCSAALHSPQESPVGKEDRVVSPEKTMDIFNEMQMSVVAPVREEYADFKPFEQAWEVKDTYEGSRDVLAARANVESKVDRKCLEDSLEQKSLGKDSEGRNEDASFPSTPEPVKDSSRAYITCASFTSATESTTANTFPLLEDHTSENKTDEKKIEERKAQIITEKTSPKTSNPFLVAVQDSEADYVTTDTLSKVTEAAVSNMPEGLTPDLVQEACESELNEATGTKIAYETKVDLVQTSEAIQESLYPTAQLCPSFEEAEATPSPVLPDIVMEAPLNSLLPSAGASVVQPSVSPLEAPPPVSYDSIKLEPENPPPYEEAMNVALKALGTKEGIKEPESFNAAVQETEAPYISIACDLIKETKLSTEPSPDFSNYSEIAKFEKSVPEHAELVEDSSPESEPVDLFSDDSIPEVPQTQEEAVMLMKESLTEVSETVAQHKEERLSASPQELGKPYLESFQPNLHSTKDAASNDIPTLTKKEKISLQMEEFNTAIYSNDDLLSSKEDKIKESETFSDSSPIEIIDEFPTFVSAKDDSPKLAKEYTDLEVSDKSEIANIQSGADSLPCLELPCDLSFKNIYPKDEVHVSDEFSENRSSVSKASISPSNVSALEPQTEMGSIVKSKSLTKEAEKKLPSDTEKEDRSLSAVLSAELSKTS

T2: recombinantly expressed human NOGO-A (hNOGO) (human, UniProt Q9NQC3 586-785, limits assumed)
T2 sequence (looked up): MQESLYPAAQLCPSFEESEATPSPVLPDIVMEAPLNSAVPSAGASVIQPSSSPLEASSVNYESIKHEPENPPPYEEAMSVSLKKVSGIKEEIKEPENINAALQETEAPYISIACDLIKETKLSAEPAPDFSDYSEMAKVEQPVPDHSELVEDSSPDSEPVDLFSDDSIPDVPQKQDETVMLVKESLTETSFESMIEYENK

T3: GST-human NOGO-A56 fusion protein (amino acids 586-785 of human NOGO-A) (human, UniProt Q9NQC3 586-786)
T3 construct: Expressed in E. coli BL21 and purified on glutathione-sepharose; Coated on plates for the ELISAs and dried onto wells for the neurite outgrowth assay; also called GST-NOGO-A56; GST-Nogo5&6
T3 sequence: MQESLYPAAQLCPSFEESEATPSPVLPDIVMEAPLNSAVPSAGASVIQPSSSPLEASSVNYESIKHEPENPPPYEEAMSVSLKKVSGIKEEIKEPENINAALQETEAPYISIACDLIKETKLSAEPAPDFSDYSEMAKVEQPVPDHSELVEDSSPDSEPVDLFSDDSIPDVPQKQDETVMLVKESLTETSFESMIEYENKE

B1: Anti-NOGO antibody 15C3/3 (mouse monoclonal) (antibody, V domains shown)
VH: QVQLQQSGAELVKPGASVKISCKASGYAFSSYWMNWVKQRPGKGLEWIGQIYPGDGDTNYNGKFKGKATLTADKSSSTAYMQLSSLTSEDSAVYFCAVRFDYWGQGTTLTVSS
VL: DIVMTQAAPSVPVTPGESVSISCRSSKSLLHSNGNTYLYWFLQRPGQSPQLLIYRMSNLASGVPDRFSGSGSGTAFTLRISRVEAEDVGVYYCMQHLEYPLTFGAGTKLELK
notes: Mouse hybridoma antibody; also called Mouse 15C3
B2: Anti-NOGO antibody 2C4/1 (mouse monoclonal) (antibody, V domains shown)
VH: EVQLVESGGGLVKPGGSLKLSCAASGFTFSCYAMSWVRQTPEKRLEWVASISDGGSYTYYPDNVKGRFTISRDNAKNNLYLQMSHLKSEDTAMYYCAKELLFDYWGQGTTLTVSS
VL: DVVMTQTPLSLPVSLGDQASISCRSSQSLVHSNGNTYLHWYLQKPGQSPKLLIYKVSNRFSGVPDRFSGSGSGTDFTLKISRVEAEDLGVYFCSQSTHVPLTFGAGTKLELK
notes: Mouse hybridoma antibody; also called Mouse 2C4
B3: Humanised anti-NOGO antibody H1L11 (antibody, V domains shown)
VH: QVQLVQSGAEVKKPGASVKVSCKASGYTFTSYWMHWVRQAPGQGLEWMGNINPSNGGTNYNEKFKSRVTMTRDTSTSTVYMELSSLRSEDTAVYYCELGQGYWGQGTTVTVSS
VL: DIVITQSPLSLPVTLGQPASISCRSSKSLLYKDGKTYLNWFQQRPGQSPQLLIYLMSTRASGVPDRFSGGGSGTDFTLKISRVEAEDVGVYYCQQLVEYPLTFGQGTKLEIK
notes: It was expressed transiently in CHO cells; also called H1l L11
B4: Chimeric 2A10 (HcLc) (antibody, human IgG1, kappa, V domains shown)
VH: QVQLQQPGTELVKPGASVKLSCKASGYTFTSYWMHWVKQRPGQGLEWIGNINPSNGGTNYNEKFKSKATLTVDKSSSTAYMQLSSLTSEDSAVYYCELGQGYWGQGTLVTVSS
VL: DIVITQDELSNPVTSGESVSISCRSSKSLLYKDGKTYLNWFLQRPGQSPQLLIYLMSTRASGVSDRFSGSGSGTDFTLEISRVKAEDVGVYYCQQLVEYPLTFGAGTKLELKR
notes: Murine 2A10 V regions on human IgG1/k wild type C regions; also called chimaera of 2A10; the chimera
B5: Anti-NOGO antibody 2A10/3 (mouse monoclonal) (antibody, V domains shown)
VH: B4 VH with L108T, V109L
VL: DIVITQDELSNPVTSGESVSISCRSSKSLLYKDGKTYLNWFLQRPGQSPQLLIYLMSTRASGVSDRFSGSGSGTDFTLEISRVKAEDVGVYYCQQLVEYPLTFGAGTKLELK
notes: Mouse hybridoma antibody; also called Mouse 2A10; 2A10-BR

How the values were obtained:
rat NOGO-A = molecular target: T1, rat NOGO-A; assay: SPR, Biacore; similar analysis using rat NOGO-A
[1] = molecular target: T2, recombinantly expressed human NOGO-A …; assay: SPR, Biacore3000; hNOGO amine-coupled to CM5 chip, antibody in solution
Method: The binding kinetics of the anti-NOGO monoclonal antibody (mAb) to recombinantly expressed human NOGO-A (hNOGO) was analysed using the Biacore3000 biosensor. The methodology was as followed:
hNOGO was immobilised to a CM5 chip by primary amine coupling using the Biacore Wizard program designed for targeted immobilisation levels. The CM5 sensor surface was activated by passing a solution of 50 mM N-hydroxy-succinimide (NHS) and 200 mM N-ethyl-N′-dimethylaminopropyl carbonide (EDC). Then using a 300 nM solution of hNOGO in 5 mM sodium acetate, pH5.0, a range of concentrations between 50-200 resonance units of hNOGO were immobilised. After immobilisation was complete any still activated esters were blocked by an injection of 1 M ethanolamine hydrochloride, pH8.5.
The H1L11 mAb (see example 8) was diluted down in HBS-EP (10 mM HEPES, pH 7.4, 150 mM NaCl, 3 mM EDTA, and 0.005% P-20 surfactant) and binding studies were carried out at concentrations ranging between 0.1-100 nM. For kinetic analysis a flowrate of 60 μl/minute was used, with no mass transfer effects seen. All concentrations were performed in duplicate, in a random order with buffer blanks included. Regeneration was achieved either by the single injection of a 15 μl pulse of 50 mM sodium hydroxide alone or the injection of 15 μl of 100 mM H₃PO₄, followed by a subsequent injection of 15 μl of 50 mM sodium hydroxide. […] All runs were referenced against a blanked sensor surface (one that had been activated and blocked as described earlier but had no addition of ligand). Analysis of binding was carried out using the BIAevaluation kinetic analysis software version 4.1. Biacore analysis of other antibodies of the invention essentially followed the same protocol as described herein.

[2] = molecular target: T3, GST-human NOGO-A56 fusion protein …; assay: ELISA; GST-human NOGO-A56 coated at 1 µg/ml, anti-human kappa peroxidase detection
Method: GST-human NOGO-A56 at 1 μg/ml in 50 mM Tris pH9.5 was coated onto Nunc Immunosorp plates (100 μl per well) at 4° C. overnight. Wells were rinsed once with TBS+0.05% tween then incubated with 2% BSA in TBS+0.05% tween to block non-specific binding sites at room temperature for Ihour. Antibodies were diluted in TBS+0.05% tween+2% BSA to 10 μg/ml and ½ dilutions made from this. Antibodies were added to wells in duplicate and incubated at room temperature for 1 hour. Wells were washed three times with TBS+0.05% tween then incubated with anti-human kappa peroxidase conjugate (1:2000) for 1 hour. Washed three times with TBS+0.05% tween and then incubated with 100 μl OPD peroxidase substrate (Sigma) per well for 10 minutes. The colour reaction was stopped by the addition of 25 μl concentrated H₂SO₄. Optical density at 490 nm was measured using a plate reader. Background values read from wells with no antibody were subtracted.
FIGS. 35A to C illustrates the dose-dependent binding of humanised antibody H1L11 in comparison with the chimera (HcLc) to human NOGO-A56 in an ELISA assay.

| Binder | Kd (rat NOGO-A) [nM] | koff (rat NOGO-A) [s⁻¹] | kon (rat NOGO-A) [M⁻¹ s⁻¹] | Kd [1] [nM] | koff [1] [s⁻¹] | kon [1] [M⁻¹ s⁻¹] | EC50 [2] [µg/mL] |
| --- | --- | --- | --- | --- | --- | --- | --- |
| B1 | 24.9 | 0.00087 | 46000 | 17.5 | 0.000828 | 40700 |  |
| B2 | 3.9 | 0.000533 | 162000 | 8 | 0.000644 | 80900 |  |
| B3 |  |  |  | 22.2 | 0.0215 | 1e+06 | 0.118 |
| B4 |  |  |  | 1.26 | 0.00249 | 2.23e+06 | 0.022 |
| B5 | 1 | 0.00101 | 1.26e+06 | 0.8 | 0.00184 | 2.9e+06 |  |
